In the supplement of paper PMC10567573:

B1: SPACA3 (parent)
chain: FTSGFNAAALDYEADGSTNNGIFQ

Variants of: B1
Assay: protein stability index of a GFP-peptide fusion (GPS, HEK-293T) (PSI 1-6); higher = more stable
Conditions: c terminus: a fixed tail appended
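Also: lentivirally expressed fusions sorted by FACS into six bins by GFP to DsRed ratio, PSI derived from sequencing read proportions per bin multiplied by bin number.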

| Variant | protein stability index |
| --- | --- |
| FTSGFNAAALDYEADGSTKNGIFQ | 1.63 |
| FTSGFNAAALDYEADGSTQNGIFQ | 2.44 |
| FTSGFNAAALDYEADGSTINGIFQ | 1.79 |
| FTSGFNAAALDYEADGSTGNGIFQ | 2.03 |
| FTSGFNAAALDYEADGSTSNGIFQ | 2.38 |
| FTSGFNAAALDYEADGSTLNGIFQ | 1.78 |
| FTSGFNAAALDYEADGSTWNGIFQ | 1.55 |
| FTSGFNAAALDYEADGSTMNGIFQ | 2.21 |
| FTSGFNAAALDWEADGSTNNGIFQ | 1.39 |
| FTSGFNAAALDLEADGSTNNGIFQ | 1.74 |
| FTSGFNAAALDSEADGSTNNGIFQ | 1.93 |
| FTSGFNAAALDAEADGSTNNGIFQ | 2.09 |
| FTSGFNAAALDFEADGSTNNGIFQ | 1.9 |
| FTSGFNACALDYEADGSTNNGIFQ | 1.77 |
| FTSGFNAWALDYEADGSTNNGIFQ | 2.61 |
| FTSGFNAEALDYEADGSTNNGIFQ | 2.35 |
| FTSGFNAVALDYEADGSTNNGIFQ | 2.4 |
| FTSGFNANALDYEADGSTNNGIFQ | 2.35 |
| FTSGFNAMALDYEADGSTNNGIFQ | 1.64 |
| FTSGFNARALDYEADGSTNNGIFQ | 2.29 |
| FTSGFNAFALDYEADGSTNNGIFQ | 2.73 |
| FTSGFNASALDYEADGSTNNGIFQ | 1.99 |
| FMSGFNAAALDYEADGSTNNGIFQ | 3.05 |
| FSSGFNAAALDYEADGSTNNGIFQ | 2.88 |

| Variant | protein stability index |
| --- | --- |
| FGSGFNAAALDYEADGSTNNGIFQ | 3.11 |
| FNSGFNAAALDYEADGSTNNGIFQ | 3.81 |
| FISGFNAAALDYEADGSTNNGIFQ | 2.02 |
| FKSGFNAAALDYEADGSTNNGIFQ | 3.62 |
| FVSGFNAAALDYEADGSTNNGIFQ | 2.31 |
| FTSGFNAAALDYENDGSTNNGIFQ | 1.72 |
| FTSGFNAAALDYESDGSTNNGIFQ | 1.95 |
| FTSGFNAAALDYEYDGSTNNGIFQ | 2.09 |
| FTSGFNAAALDYEIDGSTNNGIFQ | 2.05 |
| FTSGFNAAALDYEGDGSTNNGIFQ | 1.76 |
| FTSGFNAAALDYEWDGSTNNGIFQ | 1.94 |
| FTSGFGAAALDYEADGSTNNGIFQ | 1.83 |
| FTSGFCAAALDYEADGSTNNGIFQ | 3 |
| FTSGFSAAALDYEADGSTNNGIFQ | 1.85 |
| FTSGFPAAALDYEADGSTNNGIFQ | 1.61 |
| FTSGFLAAALDYEADGSTNNGIFQ | 2.78 |
| FTSGFAAAALDYEADGSTNNGIFQ | 1.84 |
| FTSGFRAAALDYEADGSTNNGIFQ | 1.41 |
| FTSGSNAAALDYEADGSTNNGIFQ | 4.18 |
| FTSGANAAALDYEADGSTNNGIFQ | 4.07 |
| FTSGGNAAALDYEADGSTNNGIFQ | 3.63 |
| FTSGTNAAALDYEADGSTNNGIFQ | 4.06 |
| FTSGMNAAALDYEADGSTNNGIFQ | 3.25 |
| FTSGDNAAALDYEADGSTNNGIFQ | 4.79 |

| Variant | protein stability index |
| --- | --- |
| FTSGYNAAALDYEADGSTNNGIFQ | 2.18 |
| FTSGVNAAALDYEADGSTNNGIFQ | 4.01 |
| FTSGQNAAALDYEADGSTNNGIFQ | 4.12 |
| FTSGINAAALDYEADGSTNNGIFQ | 3.14 |
| FTSGLNAAALDYEADGSTNNGIFQ | 3.11 |
| FTSGNNAAALDYEADGSTNNGIFQ | 4.47 |
| FTSGRNAAALDYEADGSTNNGIFQ | 3.25 |
| FTSGFNAALLDYEADGSTNNGIFQ | 1.78 |
| FTSGFNAADLDYEADGSTNNGIFQ | 2.42 |
| FTSGFNAASLDYEADGSTNNGIFQ | 2.5 |
| FTSGFNAAELDYEADGSTNNGIFQ | 2.46 |
| FTSGFNAAILDYEADGSTNNGIFQ | 2.44 |
| FTSGFNAAYLDYEADGSTNNGIFQ | 2.03 |
| FTSGFNAAMLDYEADGSTNNGIFQ | 2.08 |
| FTSGFNAAFLDYEADGSTNNGIFQ | 2.92 |
| FTSGFNAACLDYEADGSTNNGIFQ | 1.83 |
| FTSGFNAAALDYEAYGSTNNGIFQ | 2.47 |
| FTSGFNAAALDYEACGSTNNGIFQ | 2.27 |
| FTSGFNAAALDYEAKGSTNNGIFQ | 1.65 |
| FTSGFNAAALDYEAGGSTNNGIFQ | 1.68 |
| FTSGFNAAALDYEATGSTNNGIFQ | 1.98 |
| FTSGFNAAALDYEANGSTNNGIFQ | 1.86 |
| FTSGFNAAARDYEADGSTNNGIFQ | 1.78 |
| FTSGFNAAANDYEADGSTNNGIFQ | 2.08 |

| Variant | protein stability index |
| --- | --- |
| FTSGFNAAADDYEADGSTNNGIFQ | 2.47 |
| FTSGFNAAAKDYEADGSTNNGIFQ | 1.99 |
| FTSGFNAAACDYEADGSTNNGIFQ | 1.92 |
| FTSGFNAAAVDYEADGSTNNGIFQ | 2.33 |
| FTSGFNAAAEDYEADGSTNNGIFQ | 3.02 |
| FTSGFNAAALDYEADGSTNNGIFC | 1.93 |
| FTSGFNAAALDYEADGSTNNGIFS | 1.85 |
| FTSGFNAAALDYEADGSTNNGIFH | 2.46 |
| FTSGFNAAALDYEADGSTNNGIFV | 1.17 |
| FTSGFNKAALDYEADGSTNNGIFQ | 1.83 |
| FTSGFNSAALDYEADGSTNNGIFQ | 1.92 |
| FTSGFNVAALDYEADGSTNNGIFQ | 2.35 |
| FTSGFNPAALDYEADGSTNNGIFQ | 1.82 |
| FTSGFNTAALDYEADGSTNNGIFQ | 1.83 |
| FTSGFNHAALDYEADGSTNNGIFQ | 2.2 |
| FTSGFNEAALDYEADGSTNNGIFQ | 2.8 |
| FTSGFNAAALDYEADGSTNSGIFQ | 2.15 |
| FTSGFNAAALDYEADGSTNRGIFQ | 1.66 |
| FTSGFNAAALDYEADGSTNKGIFQ | 1.98 |
| FTSGFNAAALDYEADGSTNTGIFQ | 1.93 |
| FTSGFNAAALDYEADGSTNDGIFQ | 2.51 |
| FTSGFNAAALDYEADGSTNGGIFQ | 1.96 |
